{"source": "patent US20250000950A1", "about": "“PRESERVED FORMULATIONS” (ELI LILLY AND COMPANY, priority 2021, published 2025)", "molecules": {"B1": {"name": "insulin efsitora alfa (protein)", "chain": "FVNQHLCGSHLVEALELVCGERGFHYGGGGGGSGGGGGIVEQCCTSTCSLDQLENYCGGGGGQGGGGQGGGGQGGGGGECPPCPAPPVAGPSVFLFPPKPKDTLMISRTPEVTCVVVDVSHEDPEVQFNWYVDGVEVHNAKTKPREEQFNSTFRVVSVLTVVHQDWLNGKEYKCKVSNKGLPAPIEKTISKTKGQPREPQVYTLPPSREEMTKNQVSLTCLVKGFYPSDIAVEWESNGQPENNYKTTPPMLDSDGSFFLYSKLTVDKSRWQQGNVFSCSVMHEALHNHYTQKSLSLSPG", "modifications": "homodimer", "notes": "dimer of an insulin receptor agonist fused to a human IgG Fc region"}}, "key": {"[1]": {"assay": "Onset of melting temperature (Tm, Onset) by differential scanning calorimetry (DSC)", "type": "physicochemical", "details": "BIF 2 mg/mL", "procedure": "Biophysical developability/high-throughput profiling studies are conducted on 2 mg/mL formulations of BIF in different buffer matrices and pH conditions. The onset of melting temperature Tm (Tm, Onset) was measured using differential scanning calorimetry (DSC). Tm, Onset is the temperature at which a folded protein starts to lose its native conformation, i.e., the higher the Tm, Onset, the less susceptible a protein to denaturation."}, "Isoelectric point of BIF": {"assay": "Isoelectric point of BIF", "type": "physicochemical"}}}
{"molecule": "B1", "values": [{"measurement": "Tm, Onset", "setting": "[1]; Citrate 10 mM, NaCl 25 mM, pH 5.5", "value": 60.29, "unit": "°C"}, {"measurement": "Tm, Onset", "setting": "[1]; Citrate 10 mM, NaCl 25 mM, pH 6.0", "value": 63.58, "unit": "°C"}, {"measurement": "Tm, Onset", "setting": "[1]; Citrate 10 mM, NaCl 25 mM, pH 6.5", "value": 65.61, "unit": "°C"}, {"measurement": "Tm, Onset", "setting": "[1]; Citrate 10 mM, NaCl 25 mM, pH 7.0", "value": 66.32, "unit": "°C"}, {"measurement": "Tm, Onset", "setting": "[1]; Citrate 10 mM, NaCl 150 mM, pH 5.5", "value": 59.59, "unit": "°C"}, {"measurement": "Tm, Onset", "setting": "[1]; Citrate 10 mM, NaCl 150 mM, pH 6.0", "value": 62.78, "unit": "°C"}, {"measurement": "Tm, Onset", "setting": "[1]; Citrate 10 mM, NaCl 150 mM, pH 6.5", "value": 64.76, "unit": "°C"}, {"measurement": "Tm, Onset", "setting": "[1]; Citrate 10 mM, NaCl 150 mM, pH 7.0", "value": 65.41, "unit": "°C"}, {"measurement": "Tm, Onset", "setting": "[1]; Phosphate 10 mM, NaCl 25 mM, pH 6.0", "value": 62.86, "unit": "°C"}, {"measurement": "Tm, Onset", "setting": "[1]; Phosphate 10 mM, NaCl 25 mM, pH 6.5", "value": 64.06, "unit": "°C"}, {"measurement": "Tm, Onset", "setting": "[1]; Phosphate 10 mM, NaCl 25 mM, pH 7.0", "value": 66.39, "unit": "°C"}, {"measurement": "Tm, Onset", "setting": "[1]; Phosphate 10 mM, NaCl 25 mM, pH 7.5", "value": 66.90, "unit": "°C"}, {"measurement": "Tm, Onset", "setting": "[1]; Phosphate 10 mM, NaCl 150 mM, pH 6.0", "value": 63.36, "unit": "°C"}, {"measurement": "Tm, Onset", "setting": "[1]; Phosphate 10 mM, NaCl 150 mM, pH 6.5", "value": 64.42, "unit": "°C"}, {"measurement": "Tm, Onset", "setting": "[1]; Phosphate 10 mM, NaCl 150 mM, pH 7.0", "value": 65.79, "unit": "°C"}, {"measurement": "Tm, Onset", "setting": "[1]; Phosphate 10 mM, NaCl 150 mM, pH 7.5", "value": 66.11, "unit": "°C"}, {"measurement": "pl (isoelectric point) of BIF", "setting": "Isoelectric point of BIF", "value": "≈ 6.1"}]}
